Assay results reported in patent publication US20160340421A1 (Regeneron, published 2016).
Ends that are not written are not given here. * marks the point of attachment. Biotin = O=C1N[C@H]2[C@H](CS[C@H]2CCCCC(=O)*)N1

Tests used:
Assay in all cases: Luminex peptide beads
[1] = target: T1, hGDF8 peptide 12 (73-90), C-terminal biotinylated (human, cysteine pairing not given here)
T1 construct: also called peptide 12 C-term
T1 peptide: CCTPTKMSPINMLYFNGK-biotin
Excerpt: (§1) Fourteen peptides (Table 10) were generated from mature hGDF8 (SEQ ID NO:340). Unmodified peptides, N-terminal biotinylated peptides (N-term), or C-terminal biotinylated peptides (C-term) were used to test and localize antibody binding. Full-length hGDF8, hGDF11 and unmodified peptides were each individually amine-coupled to xMAP® Multi-Analyte COOH Microspheres (or beads). Each of the biotinylated peptides was bound to xMAP® Multi-Analyte LumAvidin Microspheres. Peptide-bound beads suspension were then mixed with an equal volume of blocking buffer (PBS, 1%13SA, 0.05% Tween20, 0.05% Sodium azide) and then distributed into a 96 well filter plate (Millipore, MULTISCREEN® BV). Control and test anti-hGDF8 antibodies, at 2.5 μg/ml were then added to the peptide-bound beads suspension and were allowed to bind to the beads at RT, overnight. The antibody-incubated beads were then washed twice with PBST (PBS+0.05% Tween20) and incubated with either Phycoerythrin (PE) conjugated anti-hFC or PE-conjugated anti-mFC antibodies at RT for 45 min. The beads were washed again and the antibody binding signal to various peptides were detected with either LUMINEX® 100™ or 200™ instruments.

[2] = target: T2, hGDF8 peptide 13 (75-105), unmodified (human)
T2 peptide: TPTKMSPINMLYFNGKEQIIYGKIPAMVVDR
Excerpt: as §1

[3] = target: T3, hGDF8 peptide 10 (56-72), unmodified (human)
T3 peptide: PHTHLVHQANPRGSAGP
Excerpt: as §1

[4] = target: T4, hGDF8 peptide 6 (48-72), N-terminal biotinylated (human, N-terminal biotin)
T4 construct: also called peptide 6 N-term
T4 peptide: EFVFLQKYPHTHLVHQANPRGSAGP
Excerpt: as §1

[5] = target: T5, hGDF8 peptide 7 (52-65), C-terminal biotinylated (human)
T5 construct: also called peptide 7 C-term
T5 peptide: LQKYPHTHLVHQAN-biotin
Excerpt: as §1

[6] = target: T6, hGDF8 peptide 10 (56-72), C-terminal biotinylated (human)
T6 construct: also called peptide 10 C-term
T6 peptide: PHTHLVHQANPRGSAGP-biotin
Excerpt: as §1

[7] = target: T7, hGDF8 peptide 14 (91-105), N-terminal biotinylated (human)
T7 construct: also called peptide 14 N-term
T7 peptide: Biotin-EQIIYGKIPAMVVDR
Excerpt: as §1

[8] = target: T8, hGDF8 peptide 2 (1-18), C-terminal biotinylated (human, cysteine pairing not given here)
T8 construct: also called peptide 2 C-term
T8 peptide: DFGLDCDEHSTESRCCRY-biotin
Excerpt: as §1

[9] = target: T9, hGDF8 peptide 6 (48-72), unmodified (human)
T9 construct: also called peptide fragment 48-72 amino acids
T9 peptide: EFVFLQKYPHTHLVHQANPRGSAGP
Excerpt: as §1

[10] = target: T10, hGDF8 peptide 12 (73-90), N-terminal biotinylated (human, cysteine pairing not given here)
T10 construct: also called peptide 12 N-term
T10 peptide: Biotin-CCTPTKMSPINMLYFNGK
Excerpt: as §1

[11] = target: T11, hGDF8 peptide 14 (91-105), unmodified (human)
T11 peptide: EQIIYGKIPAMVVDR
Excerpt: as §1

[12] = target: T12, hGDF8 peptide 3 (17-42), unmodified (human)
T12 peptide: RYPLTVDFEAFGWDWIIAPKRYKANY
Excerpt: as §1

[13] = target: T13, hGDF8 peptide 5 (48-69), unmodified (human)
T13 peptide: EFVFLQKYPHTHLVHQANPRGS
Excerpt: as §1

[14] = target: T14, hGDF8 peptide 14 (91-105), C-terminal biotinylated (human)
T14 construct: also called peptide 14 C-term
T14 peptide: EQIIYGKIPAMVVDR-biotin
Excerpt: as §1

[15] = target: T15, hGDF8 peptide 11 (65-72), C-terminal biotinylated (human)
T15 construct: also called peptide 11 C-term
T15 peptide: NPRGSAGP-biotin
Excerpt: as §1

[16] = target: T16, hGDF8 peptide 13 (75-105), C-terminal biotinylated (human, C-terminal biotin)
T16 construct: also called peptide 13 C-term
T16 peptide: T2 peptide
Excerpt: as §1

[17] = target: T17, hGDF8 peptide 1 (1-14), C-terminal biotinylated (human)
T17 construct: also called peptide 1 C-term
T17 peptide: DFGLDCDEHSTESR-biotin
Excerpt: as §1

[18] = target: T18, hGDF8 peptide 4 (48-65), C-terminal biotinylated (human)
T18 construct: also called peptide 4 C-term
T18 peptide: EFVFLQKYPHTHLVHQAN-biotin
Excerpt: as §1

[19] = target: T19, hGDF8 peptide 1 (1-14), unmodified (human)
T19 peptide: DFGLDCDEHSTESR
Excerpt: as §1

[20] = target: T20, hGDF8 peptide 12 (73-90), unmodified (human)
T20 peptide: CCTPTKMSPINMLYFNGK
Excerpt: as §1

[21] = target: T21, hGDF8 peptide 11 (65-72), N-terminal biotinylated (human)
T21 construct: also called peptide 11 N-term
T21 peptide: Biotin-NPRGSAGP
Excerpt: as §1

[22] = target: T22, hGDF8 peptide 3 (17-42), C-terminal biotinylated (human, C-terminal biotin)
T22 construct: also called peptide 3 C-term
T22 peptide: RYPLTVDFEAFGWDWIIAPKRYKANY
Excerpt: as §1

[23] = target: T23, hGDF8 peptide 7 (52-65), unmodified (human)
T23 peptide: LQKYPHTHLVHQAN
Excerpt: as §1

[24] = target: T24, hGDF8 peptide 9 (56-65), C-terminal biotinylated (human)
T24 construct: also called peptide 9 C-term
T24 peptide: PHTHLVHQAN-biotin
Excerpt: as §1

[25] = target: T25, hGDF8 peptide 2 (1-18), unmodified (human)
T25 peptide: DFGLDCDEHSTESRCCRY
Excerpt: as §1

[26] = target: T26, hGDF8 peptide 4 (48-65), unmodified (human)
T26 peptide: EFVFLQKYPHTHLVHQAN
Excerpt: as §1

[27] = target: T27, hGDF8 peptide 11 (65-72), unmodified (human)
T27 peptide: NPRGSAGP
Excerpt: as §1

[28] = target: T28, hGDF8 peptide 8 (52-72), C-terminal biotinylated (human, C-terminal biotin)
T28 construct: also called peptide 8 C-term
T28 peptide: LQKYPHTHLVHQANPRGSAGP
Excerpt: as §1

[29] = target: T29, hGDF8 peptide 2 (1-18), N-terminal biotinylated (human, cysteine pairing not given here)
T29 construct: also called peptide 2 N-term
T29 peptide: Biotin-DFGLDCDEHSTESRCCRY
Excerpt: as §1

[30] = target: T30, hGDF8 peptide 3 (17-42), N-terminal biotinylated (human, N-terminal biotin)
T30 construct: also called peptide 3 N-term
T30 peptide: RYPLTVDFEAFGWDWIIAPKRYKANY
Excerpt: as §1

[31] = target: T31, hGDF8 peptide 13 (75-105), N-terminal biotinylated (human, N-terminal biotin)
T31 construct: also called peptide 13 N-term
T31 peptide: T2 peptide
Excerpt: as §1

[32] = target: T32, hGDF8 peptide 6 (48-72), C-terminal biotinylated (human, C-terminal biotin)
T32 construct: also called peptide 6 C-term
T32 peptide: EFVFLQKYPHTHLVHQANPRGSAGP
Excerpt: as §1

[33] = target: T33, hGDF8 peptide 1 (1-14), N-terminal biotinylated (human)
T33 construct: also called peptide 1 N-term
T33 peptide: Biotin-DFGLDCDEHSTESR
Excerpt: as §1

[34] = target: T34, hGDF8 peptide 8 (52-72), unmodified (human)
T34 peptide: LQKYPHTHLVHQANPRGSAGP
Excerpt: as §1

Measured: binding result

B1: H4H1657N2 (antibody, V domains shown)
VH: EVQVLESGGDLVQPGGSLRLSCAASGFTFSAYAMTWVRQAPGKGLEWVSAISGSGGSAYYADSVKGRFTISRDNSKNTVYLQMNSLRAEDTAVYYCAKDGAWKMSGLDVWGQGTTVIVSS
VL: DIQMTQSPASLSASVGDRVTITCRASQDISDYLAWYQQKPGKIPRLLIYTTSTLQSGVPSRFRGSGSGTDFTLTISSLQPEDVATYYCQKYDSAPLTFGGGTKVEIK
notes: captured by anti-hFc, so human Fc
no binding (tested: 2.5 µg/ml): [1] | [2] | [3] | [4] | [5] | [6] | [7] | [8] | [9] | [10] | [11] | [12] | [13] | [14] | [15] | [16] | [17] | [18] | [19] | [20] | [21] | [22] | [23] | [24] | [25] | [26] | [27] | [28] | [29] | [30] | [31] | [32] | [33] | [34]
